{"source": "FireProtDB (doi:10.1016/j.jmb.2005.07.042)", "settings": "Escherichia coli (strain K12), pH 7.4, Thermal, DSC, Pipes 50 mM, reversible: yes (80%), whole UniProt chain shown", "note": "“And” between values parts separate entries of the source, which are not always exact repeats. Identical values can stand only once."}
{"protein": "Guanylate kinase wild type, P60546 (protein) MAQGTLYIVSAPSGAGKSSLIQALLKTQPLYDTQVSVSHTTRQPRPGEVHGEHYFFVNHDEFKEMISRDAFLEHAEVFGNYYGTSREAIEQVLATGVDVFLDIDWQGAQQIRQKMPHARSIFILPPSKIELDRRLRGRGQDSEEVIAKRMAQAVAEMSHYAEYDYLIVNDDFDTALTDLKTIIRAERLRMSRQKQRHDALISKLLAD", "values": [{"measurement": "unfolding enthalpy (calorimetric)", "setting": "NaCl 250 mM, transition: 3", "value": "36.8 kcal/mol and 70.3 kcal/mol"}, {"measurement": "unfolding enthalpy (calorimetric)", "setting": "transition: 3", "value": "38.9 kcal/mol and 67.5 kcal/mol"}, {"measurement": "unfolding enthalpy (calorimetric)", "setting": "transition: 4", "value": "27.3 kcal/mol and 47.8 kcal/mol and 30.8 kcal/mol"}]}
